The supplement of paper PMC10567573

B1: KLHL13 (parent)
chain: TGEFLKLPFERLAFVLSSNSLKHC
B2: PKD2L1 (parent)
chain: SGPEAARAGGWVSGEEFYMLTRRV

Variants of: B1
Test: protein stability index of a GFP-peptide fusion (GPS, HEK-293T) (PSI 1-6); higher = more stable
Conditions: c terminus: a fixed tail appended
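Also: lentivirally expressed fusions sorted by FACS into six bins by GFP to DsRed ratio, PSI derived from sequencing read proportions per bin multiplied by bin number.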

| Variant | protein stability index |
| --- | --- |
| TGEFLILPFERLAFVLSSNSLKHC | 2.34 |
| TGEFLCLPFERLAFVLSSNSLKHC | 2.54 |
| TGEFLSLPFERLAFVLSSNSLKHC | 3.28 |
| TGEFLLLPFERLAFVLSSNSLKHC | 3.24 |
| TGEFLALPFERLAFVLSSNSLKHC | 3.83 |
| TGEFLDLPFERLAFVLSSNSLKHC | 1.38 |
| TGEFLTLPFERLAFVLSSNSLKHC | 2.73 |
| TGEFLPLPFERLAFVLSSNSLKHC | 2.01 |
| TGEFCKLPFERLAFVLSSNSLKHC | 2.26 |
| TGEFKKLPFERLAFVLSSNSLKHC | 1.85 |
| TGEFQKLPFERLAFVLSSNSLKHC | 2.06 |
| TGEFNKLPFERLAFVLSSNSLKHC | 1.52 |
| TGEFEKLPFERLAFVLSSNSLKHC | 1.72 |
| TGEFRKLPFERLAFVLSSNSLKHC | 2.16 |
| TGEFHKLPFERLAFVLSSNSLKHC | 1.78 |
| TGEFTKLPFERLAFVLSSNSLKHC | 2.54 |
| TGEFAKLPFERLAFVLSSNSLKHC | 1.6 |
| TGEFDKLPFERLAFVLSSNSLKHC | 2.48 |
| TGEFYKLPFERLAFVLSSNSLKHC | 1.8 |
| TGEFLKAPFERLAFVLSSNSLKHC | 1.73 |
| TGEFLKWPFERLAFVLSSNSLKHC | 4.29 |
| TGEFLKTPFERLAFVLSSNSLKHC | 3.88 |

| Variant | protein stability index |
| --- | --- |
| TGEFLKKPFERLAFVLSSNSLKHC | 1.86 |
| TGEFLKQPFERLAFVLSSNSLKHC | 1.19 |
| TGEFLKIPFERLAFVLSSNSLKHC | 3.09 |
| TGEFLKPPFERLAFVLSSNSLKHC | 2.87 |
| TGEFLKEPFERLAFVLSSNSLKHC | 1.08 |
| TGEFLKDPFERLAFVLSSNSLKHC | 1.25 |
| TGEPLKLPFERLAFVLSSNSLKHC | 1.62 |
| TGEGLKLPFERLAFVLSSNSLKHC | 1.45 |
| TGEALKLPFERLAFVLSSNSLKHC | 2.92 |
| TGESLKLPFERLAFVLSSNSLKHC | 3.3 |
| TGEKLKLPFERLAFVLSSNSLKHC | 1.78 |
| TGEDLKLPFERLAFVLSSNSLKHC | 1.55 |
| TGEELKLPFERLAFVLSSNSLKHC | 1.42 |
| TGERLKLPFERLAFVLSSNSLKHC | 1.13 |
| TGEILKLPFERLAFVLSSNSLKHC | 1.31 |
| TGEWLKLPFERLAFVLSSNSLKHC | 2.03 |
| TGEYLKLPFERLAFVLSSNSLKHC | 2.4 |
| TGENLKLPFERLAFVLSSNSLKHC | 1.48 |
| TGPFLKLPFERLAFVLSSNSLKHC | 2.66 |
| TGQFLKLPFERLAFVLSSNSLKHC | 4.44 |
| TGAFLKLPFERLAFVLSSNSLKHC | 2.21 |
| TGGFLKLPFERLAFVLSSNSLKHC | 4.77 |

| Variant | protein stability index |
| --- | --- |
| TGDFLKLPFERLAFVLSSNSLKHC | 3.15 |
| TGHFLKLPFERLAFVLSSNSLKHC | 2.67 |
| TGYFLKLPFERLAFVLSSNSLKHC | 3.14 |
| TGRFLKLPFERLAFVLSSNSLKHC | 2.35 |
| TGTFLKLPFERLAFVLSSNSLKHC | 1 |
| TGVFLKLPFERLAFVLSSNSLKHC | 2.28 |
| TGNFLKLPFERLAFVLSSNSLKHC | 5.52 |
| TIEFLKLPFERLAFVLSSNSLKHC | 4.78 |
| THEFLKLPFERLAFVLSSNSLKHC | 3.72 |
| TFEFLKLPFERLAFVLSSNSLKHC | 3.56 |
| TNEFLKLPFERLAFVLSSNSLKHC | 2.52 |
| TKEFLKLPFERLAFVLSSNSLKHC | 2.12 |
| TGEFLKLNFERLAFVLSSNSLKHC | 2.66 |
| TGEFLKLDFERLAFVLSSNSLKHC | 1.58 |
| TGEFLKLQFERLAFVLSSNSLKHC | 1.41 |
| TGEFLKLCFERLAFVLSSNSLKHC | 1.84 |
| TGEFLKLTFERLAFVLSSNSLKHC | 3.92 |
| TGEFLKLYFERLAFVLSSNSLKHC | 4.25 |
| TGEFLKLMFERLAFVLSSNSLKHC | 3.97 |
| EGEFLKLPFERLAFVLSSNSLKHC | 2.1 |
| LGEFLKLPFERLAFVLSSNSLKHC | 3.16 |
| HGEFLKLPFERLAFVLSSNSLKHC | 3.25 |

| Variant | protein stability index |
| --- | --- |
| QGEFLKLPFERLAFVLSSNSLKHC | 2.82 |
| RGEFLKLPFERLAFVLSSNSLKHC | 3.17 |
| TGEFLKLPPERLAFVLSSNSLKHC | 2.04 |
| TGEFLKLPLERLAFVLSSNSLKHC | 3.5 |
| TGEFLKLPHERLAFVLSSNSLKHC | 1.71 |
| TGEFLKLPIERLAFVLSSNSLKHC | 3.04 |
| TGEFLKLPKERLAFVLSSNSLKHC | 2.56 |
| TGEFLKLPGERLAFVLSSNSLKHC | 2.18 |
| TGEFLKLPDERLAFVLSSNSLKHC | 2.04 |
| TGEFLKLPQERLAFVLSSNSLKHC | 2.6 |
| TGEFLKLPAERLAFVLSSNSLKHC | 2.33 |
| TGEFLKLPMERLAFVLSSNSLKHC | 3.01 |
| TGEFLKLPSERLAFVLSSNSLKHC | 2.07 |
| TGEFLKLPEERLAFVLSSNSLKHC | 2.22 |
| TGEFLKLPYERLAFVLSSNSLKHC | 2.7 |
| TGEFLKLPWERLAFVLSSNSLKHC | 3.18 |
| TGEFLKLPVERLAFVLSSNSLKHC | 2.23 |
| TGEFLKLPNERLAFVLSSNSLKHC | 1.8 |
| TGEFLKLPTERLAFVLSSNSLKHC | 1.65 |
| TGEFLKLPCERLAFVLSSNSLKHC | 1.82 |
| TGEFLKLPRERLAFVLSSNSLKHC | 1.65 |
| TGEFLKLPFARLAFVLSSNSLKHC | 3.65 |

Variants of: B2
Test: as above
Conditions: c terminus: a fixed tail appended

| Variant | protein stability index |
| --- | --- |
| SGPEAARAGGWVSGEEFYMETRRV | 3.64 |
| SGPEAARAGGWVSGEEFYMATRRV | 3.16 |
| SGPEAARAGGWVSGEEFYMITRRV | 2.01 |
| SGPEAARAGGWVSGEEFYMMTRRV | 2.93 |
| SGPEAARAGGWVSGEEFYMPTRRV | 3.94 |
| SGPEAARAGGWVSGEEFYMTTRRV | 2.81 |
| SGPEAARAGGWVSGEEFYMGTRRV | 4.08 |
| SGPEAARAGGWVSGEEFYMQTRRV | 3.1 |
| SGPEAARAGGWVSGEEFYMRTRRV | 3.79 |
| SGPEAARAGGWVSGEEFYMVTRRV | 2.25 |
| SGPEAARAGGWVSGEEFYMFTRRV | 1.81 |
| SGPEAARAGGWVSGEEFYMKTRRV | 3.46 |
| SGPEAARAGGWVSGEEFYMDTRRV | 4.19 |
| SGPEAARAGGWVSGEEFYMSTRRV | 3.61 |
| SGPEAARAGGWVSGEEFYMNTRRV | 3.79 |
| SGPEAARAGGWVSGEEFYMWTRRV | 1.73 |
| SGPEAARAGGWVSGEEFYMYTRRV | 2.74 |
| SGPEAARAGGWVSGEEFYMHTRRV | 2.69 |
| SGPEAARAGGWVSGEEFYMCTRRV | 2.97 |
| SGPEAARAGGWVSGEEFYNLTRRV | 3.63 |
| SGPEAARAGGWVSGEEFYLLTRRV | 3.28 |
| SGPEAARAGGWVSGEEFYYLTRRV | 2.39 |
| SGPEAARAGGWVSGEEFYSLTRRV | 3.43 |
| SGPEAARAGGWVSGEEFYQLTRRV | 3.38 |
| SGPEAARAGGWVSGEEFYPLTRRV | 3.94 |

| Variant | protein stability index |
| --- | --- |
| SGPEAARAGGWVSGEEFYVLTRRV | 1.48 |
| SGPEAARAGGWVSGEEFYWLTRRV | 2.68 |
| SGPEAARAGGWVSGEEFYRLTRRV | 3.11 |
| SGPEAARAGGWVSGEEFYTLTRRV | 2.94 |
| SGPEAARAGGWVSGEEFYMLTRQV | 1.92 |
| SGPEAARAGGWVSGEEFYMLTRGV | 2.93 |
| SGPEAARAGGWVSGEEFYMLTRSV | 2.97 |
| SGPEAARAGGWVSGEEFYMLTRYV | 2.44 |
| SGPEAARAGGWVSGEEFYMLTRFV | 2.06 |
| SGPEAARAGGWVSGEEFYMLTRKV | 2.45 |
| SGPEAARAGGWVSGEEFYMLTRVV | 2.16 |
| SGPEAARAGGWVSGEEFYMLTRCV | 2.14 |
| SGPEAARAGGWVSGEEFYMLTRDV | 3.49 |
| SGPEAARAGGWVSGEEFYMLTRPV | 2.62 |
| SGPEAARAGGWVSGEEFYMLTRHV | 2.05 |
| SGPEAARAGGWVSGEEFYMLTRAV | 1.85 |
| SGPEAARAGGWVSGEEFYMLTRMV | 1.84 |
| SGPEAARAGGWVSGEEFYMLTREV | 2.84 |
| SGPEAARAGGWVSGEEFYMLTRTV | 2.07 |
| SGPEAARAGGWVSGEEFYMLTRNV | 2.5 |
| SGPEAARAGGWVSGEEFYMLTRLV | 1.53 |
| SGPEAARAGGWVSGEEFYMLTRWV | 2.87 |
| SGPEAARAGGWVSGEEFYMLTRRP | 2.81 |
| SGPEAARAGGWVSGEEFYMLTRRR | 2.63 |
| SGPEAARAGGWVSGEEFYMLTRRW | 2.14 |

| Variant | protein stability index |
| --- | --- |
| SGPEAARAGGWVSGEEFYMLTRRM | 1.71 |
| SGPEAARAGGWVSGEEFYMLTRRK | 3.63 |
| SGPEAARAGGWVSGEEFYMLTRRT | 2.98 |
| SGPEAARAGGWVSGEEFYMLTRRA | 1.97 |
| SGPEAARAGGWVSGEEFYMLTRRC | 2.08 |
| SGPEAARAGGWVSGEEFYMLTRRG | 2.48 |
| SGPEAARAGGWVSGEEFYMLTRRF | 1.71 |
| SGPEAARAGGWVSGEEFYMLTRRH | 2.72 |
| SGPEAARAGGWVSGEEFYMLTRRY | 2.07 |
| SGPEAARAGGWVSGEEFYMLTRRD | 3.54 |
| SGPEAARAGGWVSGEEFYMLTRRQ | 3.01 |
| SGPEAARAGGWVSGEEFYMLTRRN | 2.66 |
| SGPEAARAGGWVSGEEFYMLTRRS | 2.67 |
| SGPEAARAGGWVSGEEFYMLTRRE | 3.16 |
| SGPEAARAGGWVSGEEFYMLTRRL | 1.98 |
| SGPEAARAGGWVSGEEFYMLTRRI | 1.96 |
| SGPEAARAGGWVSGEEFYMLTTRV | 1.33 |
| SGPEAARAGGWVSGEEFYMLTKRV | 2.04 |
| SGPEAARAGGWVSGEEFYMLTDRV | 3.43 |
| SGPEAARAGGWVSGEEFYMLTHRV | 1.96 |
| SGPEAARAGGWVSGEEFYMLTLRV | 3.52 |
| SGPEAARAGGWVSGEEFYMLTCRV | 1.55 |
| SGPEAARAGGWVSGEEFYMLTQRV | 2.25 |
| SGPEAARAGGWVSGEEFYMLTPRV | 2.44 |
| SGPEAARAGGWVSGEEFYMLTIRV | 2.28 |

| Variant | protein stability index |
| --- | --- |
| SGPEAARAGGWVSGEEFYMLTGRV | 2.33 |
| SGPEAARAGGWVSGEEFYMLTWRV | 1.72 |
| SGPEAARAGGWVSGEEFYMLTERV | 3.26 |
| SGPEAARAGGWVSGEEFYMLTYRV | 2.41 |
| SGPEAARAGGWVSGEEFYMLTNRV | 2.81 |
| SGPEAARAGGWVSGEEFYMLTSRV | 2.55 |
| SGPEAARAGGWVSGEEFYMLARRV | 2.41 |
| SGPEAARAGGWVSGEEFYMLNRRV | 2.9 |
| SGPEAARAGGWVSGEEFYMLCRRV | 2.29 |
| SGPEAARAGGWVSGEEFYMLGRRV | 3.08 |
| SGPEAARAGGWVSGEEFYMLFRRV | 1.5 |
| SGPEAARAGGWVSGEEFYMLQRRV | 2.94 |
| SGPEAARAGGWVSGEEFYMLIRRV | 1.75 |
| SGPEAARAGGWVSGEEFYMLRRRV | 3.1 |
| SGPEAARAGGWVSGEEFYMLDRRV | 3.76 |
| SGPEAARAGGWVSGEEFYMLMRRV | 2.67 |
| SGPEAARAGGWVSGEEFYMLLRRV | 2.62 |
| SGPEAARAGGWVSGEEFYMLPRRV | 3.33 |
| SGPEAARAGGWVSGEEFYMLYRRV | 1.6 |
| SGPEAARAGGWVSGEEFYMLSRRV | 2.62 |
| SGPEAARAGGWVSGEEFYMLKRRV | 3.71 |
| SGPEAARAGGWVSGEEFYMLHRRV | 2.27 |
| SGPEAARAGGWVSGEEFYMLWRRV | 2.12 |
| SGPEAARAGGWVSGEEFYMLVRRV | 1.57 |
| SGPEAARAGGWVSGEEFYMLERRV | 3.29 |
